According to patent US20240270826A1:

Tests used:
[1] = target: Human SARS-CoV-2 Delta (B.1.617.2) S (SARS-CoV-2 (Delta variant)) (UniProt P0DTC2); assay: flow cytometry SVNA: VHH-Fc inhibits S binding to ACE2 on Vero E6 cells
[2] = target: Human SARS-CoV-2 Gamma (P.1) S (SARS-CoV-2 (Gamma variant)) (UniProt P0DTC2); assay: as above
[3] = target: Human SARS-CoV-2 Kappa (B.1.617.1) S (SARS-CoV-2 (Kappa variant)) (UniProt P0DTC2); assay: as above
[4] = target: SARS-CoV-2 spike protein S on live virus, Alpha variant (SARS-CoV-2 (Alpha variant)) (UniProt P0DTC2); assay: cell-based or functional assay

Substance: VHH-72 VHH-Fc (Fc fusion)
- IC50 [1]: 10.5 nM
- IC50 [2]: 3.3 nM
- IC50 [3]: 8.5 nM
- LVNA IC50 [4]: 1.86 nM
